Experimental findings from the supplement of paper PMC5998384 are described below.

Data set [1] relates to HeLa Kyoto. The data set is described as follows: thermal stability score vs G1/S (z-score of summed log2 fold changes over temperatures); higher = more thermally stable than in G1/S.
Data set [2] has as its system HeLa Kyoto. Description: solubility in G1/S (NP-40 vs SDS abundance) (log2 ratio); higher = more soluble. As to conditions: cell cycle stage: G1/S.
Data set [3] deals with HeLa Kyoto. Description: solubility change mitosis vs G1/S (difference of NP-40 vs SDS log2 ratios) (log2 ratio difference); higher = more soluble in mitosis.
In data set [4] the test system is HeLa Kyoto. The data set is described as follows: melting temperature (median over replicates), in situ; higher = more thermally stable.
Where [5] appears, read: cell cycle stage: early G1 (4.5 h after nocodazole release).
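Wherever melting temperature (median over replicates), in situ is given: HeLa Kyoto cells synchronized by double thymidine or nocodazole block, proteins quantified by TMT10plex mass spectrometry, three independent biological replicates.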
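Wherever solubility change mitosis vs G1/S (difference of NP-40 vs SDS log2 ratios) is given: synchronized HeLa Kyoto cells (double thymidine block for G1/S, nocodazole release for mitosis), protein amounts in NP-40 versus SDS lysates quantified by mass spectrometry, three biological replicates.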
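Wherever solubility in G1/S (NP-40 vs SDS abundance) is given: HeLa Kyoto cells arrested at G1/S by double thymidine block, proteins quantified by TMT10plex mass spectrometry in mild NP-40 versus SDS extracts, three biological replicates.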
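Wherever thermal stability score vs G1/S (z-score of summed log2 fold changes over temperatures) is given: synchronized HeLa Kyoto cells, proteins quantified by TMT10plex mass spectrometry, three biological replicates, mitosis taken 0.5 h after nocodazole release, G1/S directly after double thymidine block.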

On to “MEEVRCPEHGTFCFLKTGVRDGPNKGKSFYVCRADTCSFVRATDIPVSHCLLHEDFVVELQGLLLPQDKKEYRLFFRCIRSKAEGKRWCGSIPWQDPDSKEHSVSNKSQHASETFHHSSNWLRNPFKVLDKNQEPALWKQLIKGEGEEKKADKKQREKGDQLFDQKKEQKPEMMEKDLSSGLVPKKKQSVVQEKKQEEGAEIQCEAETGGTHKRDFSEIKSQQCQGNELTRPSASSQEKSSGKSQDVQRESEPLREKVTQLLPQNVHSHNSISKPQKGGPLNKEYTNWEAKETKAKDGPSIQATQKSLPQGHFQERPETHSVPAPGGPAAQAAPAAPGLSLGEGREAATSSDDEEEDDVVFVSSKPGSPLLFDSTLDLETKENLQFPDRSVQRKVSPASGVSKKVEPSDPVARRVYLTTQLKQKKSTLASVNIQALPDKGQKLIKQIQELEEVLSGLTLSPEQGTNEKSNSQVPQQSHFTKTTTGPPHLVPPQPLPRRGTQPVGSLELKSACQVTAGGSSQCYRGHTNQDHVHAVWKITSEAIGQLHRSLESCPGETVVAEDPAGLKVPLLLHQKQALAWLLWRESQKPQGGILADDMGLGKTLTMIALILTQKNQEKKEEKEKSTALTWLSKDDSCDFTSHGTLIICPASLIHHWKNEVEKRVNSNKLRVYLYHGPNRDSRARVLSTYDIVITTYSLVAKEIPTNKQEAEIPGANLNVEGTSTPLLRIAWARIILDEAHNVKNPRVQTSIAVCKLQACARWAVTGTPIQNNLLDMYSLLKFLRCSPFDEFNLWRSQVDNGSKKGGERLSILTKSLLLRRTKDQLDSTGRPLVILPQRKFQLHHLKLSEDEETVYNVFFARSRSALQSYLKRHESRGNQSGRSPNNPFSRVALEFGSEEPRHSEAADSPRSSTVHILSQLLRLRQCCCHLSLLKSALDPMELKGEGLVLSLEEQLSALTLSELRDSEPSSTVSLNGTFFKMELFEGMRESTKISSLLAELEAIQRNSASQKSVIVSQWTNMLKVVALHLKKHGLTYATIDGSVNPKQRMDLVEAFNHSRGPQVMLISLLAGGVGLNLTGGNHLFLLDMHWNPSLEDQACDRIYRVGQQKDVVIHRFVCEGTVEEKILQLQEKKKDLAKQVLSGSGESVTKLTLADLRVLFGI [TTF2]”, for which the figures for the thermal stability score in the data set on HeLa Kyoto [1] (setting [5]) and with HeLa Kyoto [1] (cell cycle stage: mitosis) were 0.916 and 0.826, respectively. For the same sequence, in the data set on HeLa Kyoto [2], the “solubility in G1/S (log2)” value is -0.107. For the same sequence, the “solubility change mitosis (log2)” value in the data set with HeLa Kyoto [3] was -0.0303. Besides, the melting temperature in the data set with HeLa Kyoto [4] (cell cycle stage: G1/S) stood at 48.3 °C; in the data set with HeLa Kyoto [4] (cell cycle stage: mitosis) it was 49.1 °C.

Turning to “MEFLKTCVLRRNACTAVCFWRSKVVQKPSVRRISTTSPRSTVMPAWVIDKYGKNEVLRFTQNMMMPIIHYPNEVIVKVHAASVNPIDVNMRSGYGATALNMKRDPLHVKIKGEEFPLTLGRDVSGVVMECGLDVKYFKPGDEVWAAVPPWKQGTLSEFVVVSGNEVSHKPKSLTHTQAASLPYVALTAWSAINKVGGLNDKNCTGKRVLILGASGGVGTFAIQVMKAWDAHVTAVCSQDASELVRKLGADDVIDYKSGSVEEQLKSLKPFDFILDNVGGSTETWAPDFLKKWSGATYVTLVTPFLLNMDRLGIADGMLQTGVTVGSKALKHFWKGVHYRWAFFMASGPCLDDIAELVDAGKIRPVIEQTFPFSKVPEAFLKVERGHARGKTVINVV [RTN4IP1]”, the thermal stability score in the data set on HeLa Kyoto [1] (setting [5]) stood at 0.632; in the data set on HeLa Kyoto [1] (cell cycle stage: mitosis) it was 1.04. Besides, the “solubility in G1/S (log2)” value in the data set on HeLa Kyoto [2] was -0.119. The “solubility change mitosis (log2)” value in the data set on HeLa Kyoto [3] is -0.0156. In addition, the melting temperature was determined as 50.7 °C in the data set with HeLa Kyoto [4] (cell cycle stage: G1/S) and 51.7 °C with HeLa Kyoto [4] (cell cycle stage: mitosis).

Regarding “MEFQAVVMAVGGGSRMTDLTSSIPKPLLPVGNKPLIWYPLNLLERVGFEEVIVVTTRDVQKALCAEFKMKMKPDIVCIPDDADMGTADSLRYIYPKLKTDVLVLSCDLITDVALHEVVDLFRAYDASLAMLMRKGQDSIEPVPGQKGKKKAVEQRDFIGVDSTGKRLLFMANEADLDEELVIKGSILQKHPRIRFHTGLVDAHLYCLKKYIVDFLMENGSITSIRSELIPYLVRKQFSSASSQQGQEEKEEDLKKKELKSLDIYSFIKEANTLNLAPYDACWNACRGDRWEDLSRSQVRCYVHIMKEGLCSRVSTLGLYMEANRQVPKLLSALCPEEPPVHSSAQIVSKHLVGVDSLIGPETQIGEKSSIKRSVIGSSCLIKDRVTITNCLLMNSVTVEEGSNIQGSVICNNAVIEKGADIKDCLIGSGQRIEAKAKRVNEVIVGNDQLMEI [EIF2B3]”, the thermal stability score in the data set on HeLa Kyoto [1] (setting [5]) is -0.882; with HeLa Kyoto [1] (cell cycle stage: mitosis), -0.4. The “solubility in G1/S (log2)” value with HeLa Kyoto [2] is -0.0277. For the same sequence, in the data set on HeLa Kyoto [3], the “solubility change mitosis (log2)” value is -0.222. Also, the melting temperature in the data set on HeLa Kyoto [4] (cell cycle stage: G1/S) stood at 50.5 °C; in the data set on HeLa Kyoto [4] (cell cycle stage: mitosis), 50.7 °C.

On to “MEGGPAVCCQDPRAELVERVAAIDVTHLEEADGGPEPTRNGVDPPPRARAASVIPGSTSRLLPARPSLSARKLSLQERPAGSYLEAQAGPYATGPASHISPRAWRRPTIESHHVAISDAEDCVQLNQYKLQSEIGKGAYGVVRLAYNESEDRHYAMKVLSKKKLLKQYGFPRRPPPRGSQAAQGGPAKQLLPLERVYQEIAILKKLDHVNVVKLIEVLDDPAEDNLYLVFDLLRKGPVMEVPCDKPFSEEQARLYLRDVILGLEYLHCQKIVHRDIKPSNLLLGDDGHVKIADFGVSNQFEGNDAQLSSTAGTPAFMAPEAISDSGQSFSGKALDVWATGVTLYCFVYGKCPFIDDFILALHRKIKNEPVVFPEEPEISEELKDLILKMLDKNPETRIGVPDIKLHPWVTKNGEEPLPSEEEHCSVVEVTEEEVKNSVRLIPSWTTVILVKSMLRKRSFGNPFEPQARREERSMSAPGNLLVKEGFGEGGKSPELPGVQEDEAAS [CAMKK1]”, for which the thermal stability score in the data set on HeLa Kyoto [1] (setting [5]) was -0.286; with HeLa Kyoto [1] (cell cycle stage: mitosis), 0.129. Moreover, the “solubility in G1/S (log2)” value in the data set with HeLa Kyoto [2] was found to be 0.186. Further, the “solubility change mitosis (log2)” value in the data set with HeLa Kyoto [3] was 0.147. Also, in the data set with HeLa Kyoto [4] (cell cycle stage: mitosis), the melting temperature worked out at 50.4 °C.

Consider “MEGMDVDLDPELMQKFSCLGTTDKDVLISEFQRLLGFQLNPAGCAFFLDMTNWNLQAAIGAYYDFESPNISVPSMSFVEDVTIGEGESIPPDTQFVKTWRIQNSGAEAWPPGVCLKYVGGDQFGHVNMVMVRSLEPQEIADVSVQMCSPSRAGMYQGQWRMCTATGLYYGDVIWVILSVEVGGLLGVTQQLSSFETEFNTQPHRKVEGNFNPFASPQKNRQSDENNLKDPGGSEFDSISKNTWAPAPDTWAPAPDQTEQDQNRLSQNSVNLSPSSHANNLSVVTYSKGLHGPYPFGQS [C6ORF106]”, for which the thermal stability score in the data set with HeLa Kyoto [1] (setting [5]) turned out to be 0.563; in the data set on HeLa Kyoto [1] (cell cycle stage: mitosis), 0.668. The “solubility in G1/S (log2)” value in the data set on HeLa Kyoto [2] was 0.214. Besides, the “solubility change mitosis (log2)” value with HeLa Kyoto [3] was -0.211. In addition, in the data set on HeLa Kyoto [4] (cell cycle stage: G1/S), the melting temperature was found to be 49.4 °C.

As to “MEGPAEWGPEAALGPEAVLRFLAERGGRALHAELVQHFRGALGGEPEQRARARAHFKELVNAVATVRVDPADGAKYVHLKKRFCEGPSEPSGDPPRIQVTAEPEAPDGPAGPEARDRLPDAAAPESLPGQGRELGEGEPPAPAHWPPLSAGARRKNSRRDVQPLPRTPAPGPSEDLELPPHGCEEADRGSSLVGATAQRPARQNLRDLVMGSSPQLKRSVCPGGSSPGSSSGGGRGRGGGDSDSASVASSSAEEESSGGGSVTLDPLEHAWMLSASDGKWDSLEGLLTCEPGLLVKRDFITGFTCLHWAAKHGRQELLAMLVNFANKHQLPVNIDARTSGGYTALHLAAMHGHVEVVKLLVGAYDADVDIRDYSGKKASQYLSRSIAEEIKNLVGALDEGDGESAAGSGGGRWRLSKVLPSHLITYKLSHALEDGGDHHHHHHSAEGWVGGKAKDPGRKASGSSSGRIKPRLNKIRFRTQIVHTTPSFRDPEQPLEGRGEEGVGEERPVKGHSPFTLRPKSNVFG [SOWAHC]”, the thermal stability score in the data set with HeLa Kyoto [1] (setting [5]) was 0.128; in the data set on HeLa Kyoto [1] (cell cycle stage: mitosis), -0.236. Also, the “solubility in G1/S (log2)” value with HeLa Kyoto [2] was 0.325. Also, the “solubility change mitosis (log2)” value in the data set with HeLa Kyoto [3] worked out at 0.021. In addition, the figures for the melting temperature with HeLa Kyoto [4] (cell cycle stage: G1/S) and with HeLa Kyoto [4] (cell cycle stage: mitosis) were 51.2 °C and 49.7 °C, respectively.

Take “MEGQRWLPLEANPEVTNQFLKQLGLHPNWQFVDVYGMDPELLSMVPRPVCAVLLLFPITEKYEVFRTEEEEKIKSQGQDVTSSVYFMKQTISNACGTIGLIHAIANNKDKMHFESGSTLKKFLEESVSMSPEERARYLENYDAIRVTHETSAHEGQTEAPSIDEKVDLHFIALVHVDGHLYELDGRKPFPINHGETSDETLLEDAIEVCKKFMERDPDELRFNAIALSAA [UCHL3]”: the thermal stability score in the data set on HeLa Kyoto [1] (setting [5]) was 0.593; in the data set with HeLa Kyoto [1] (cell cycle stage: mitosis), -0.422. Besides, the “solubility in G1/S (log2)” value in the data set on HeLa Kyoto [2] came to 0.205. Moreover, the “solubility change mitosis (log2)” value in the data set with HeLa Kyoto [3] came out at 0.183. Also, the melting temperature in the data set on HeLa Kyoto [4] (cell cycle stage: G1/S) and in the data set on HeLa Kyoto [4] (cell cycle stage: mitosis) was 52.2 °C each time.

As to “MEHVTEGSWESLPVPLHPQVLGALRELGFPYMTPVQSATIPLFMRNKDVAAEAVTGSGKTLAFVIPILEILLRREEKLKKSQVGAIIITPTRELAIQIDEVLSHFTKHFPEFSQILWIGGRNPGEDVERFKQQGGNIIVATPGRLEDMFRRKAEGLDLASCVRSLDVLVLDEADRLLDMGFEASINTILEFLPKQRRTGLFSATQTQEVENLVRAGLRNPVRVSVKEKGVAASSAQKTPSRLENYYMVCKADEKFNQLVHFLRNHKQEKHLVFFSTCACVEYYGKALEVLVKGVKIMCIHGKMKYKRNKIFMEFRKLQSGILVCTDVMARGIDIPEVNWVLQYDPPSNASAFVHRCGRTARIGHGGSALVFLLPMEESYINFLAINQKCPLQEMKPQRNTADLLPKLKSMALADRAVFEKGMKAFVSYVQAYAKHECNLIFRLKDLDFASLARGFALLRMPKMPELRGKQFPDFVPVDVNTDTIPFKDKIREKQRQKLLEQQRREKTENEGRRKFIKNKAWSKQKAKKEKKKKMNEKRKREEGSDIEDEDMEELLNDTRLLKKLKKGKITEEEFEKGLLTTGKRTIKTVDLGISDLEDDC [DDX55]”, the thermal stability score in the data set with HeLa Kyoto [1] (setting [5]) amounted to 2.22; with HeLa Kyoto [1] (cell cycle stage: mitosis) it was 3.29. Further, in the data set on HeLa Kyoto [2], the “solubility in G1/S (log2)” value was -1.07. In addition, the “solubility change mitosis (log2)” value in the data set on HeLa Kyoto [3] worked out at 0.392. Further, the figures for the melting temperature in the data set on HeLa Kyoto [4] (cell cycle stage: G1/S) and with HeLa Kyoto [4] (cell cycle stage: mitosis) were 49.2 °C and 50.7 °C, respectively.
